Experimental data taken from publication doi:10.1101/2020.09.10.287607 (bioRxiv, 2020).

Assays:
Experiment in all cases: in vitro binding assay
[1] = biological target: T1, recombinant human RSPO2 (Peprotech 120-43) (human, UniProt Q6UXX9 22-243)
[2] = biological target: T1, recombinant human RSPO2 (Peprotech …); remark: listed apart in the source
[3] = biological target: T2, recombinant human RSPO3 (Peprotech 120-44) (human, UniProt Q9BXY4 22-272)
T2 sequence (looked up): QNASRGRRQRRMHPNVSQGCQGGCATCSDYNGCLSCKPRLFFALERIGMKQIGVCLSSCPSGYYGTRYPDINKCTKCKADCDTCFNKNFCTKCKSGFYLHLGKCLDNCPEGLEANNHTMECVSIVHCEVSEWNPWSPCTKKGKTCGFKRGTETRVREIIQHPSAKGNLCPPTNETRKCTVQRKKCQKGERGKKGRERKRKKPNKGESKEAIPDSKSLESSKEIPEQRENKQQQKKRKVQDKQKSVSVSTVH

T1 sequence (Q6UXX9 22-243): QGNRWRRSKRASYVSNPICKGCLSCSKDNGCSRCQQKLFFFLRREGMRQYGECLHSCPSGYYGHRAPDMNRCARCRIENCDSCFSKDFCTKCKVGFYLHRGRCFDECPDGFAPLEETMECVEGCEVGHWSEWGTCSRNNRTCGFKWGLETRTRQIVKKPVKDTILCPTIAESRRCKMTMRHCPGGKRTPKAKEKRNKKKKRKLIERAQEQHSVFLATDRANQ

Binder | Kd [1] | binding result [2] | binding result [3]
BMPR1A^ECD-AP (domain or fragment, UniProt P36894 24-152, looked up) QNLDSMLHGTGMKSDSDQKKSENGVTLAPEDTLPFLKCYCSGHCPDDAINNTCITNGHCFAIIEEDDQGETTLASGCMKYEGSDFQCKDSPKAQLRRTIECCRTNLCNQYLQPTLPPVVIGPFFDGSIR | ~4.8 nM |  | 
recombinant human ZNRF3 Fc Chimera protein (R&D systems 7994-RF) (Fc fusion, UniProt Q9ULT6 56-219, looked up) KETAFVEVVLFESSPSGDYTTYTTGLTGRFSRAGATLSAEGEIVQMHPLGLCNNNDEEDLYEYGWVGVVKLEQPELDPKPCLTVLGKAKRAVQRGATAVIFDVSENPEAIDQLNQGSEDPLKRPVVYVKGADAIKLMNIVNKQKVARARIQHRPPRQPTEYFDM |  | binds | binds
